# Measurements: US11053304 (CENTIVAX, dated 2021)
# Changes are numbered by the printed parent chain. Like-named read-outs stand apart in the source and are kept apart here.
# B1: COVID19_P07_A09 (scFv, V domains shown)
# VH: EVQLVESGGGLVQPGGSLRLSCAASGFTFSSYGVHWVRQAPGKGLEWVAVISHDGKKKYYADSVKGRFTISRDNSKNTLYLQMNSLRAEDTAVYYCVTNVDNSRDYFPHYFHDMDVWGQGTLVTVSS
# VL: not shown
# B2: COVID19_P08_D09 (scFv, V domains shown)
# VH: B1 VH with S31T, G33A, V34M, H53Y, K56N, K57Y, K58Q, V100L
# VL: not shown
# B3: COVID19_P19_F02 (scFv, V domains shown)
# VH: EVQLVESGGGLVQPGGSLRLSCAASGFTFSSYGMHWVRQAPGKGLEWVSAYSGSGGYTYFADSVKGRFTISRDNSKNTLYLQMNSLRAEDTAVYYCVTNMDNSRDYFPHYFHDMDVWGQGTLVTVSS
# VL: DIVMTQSPLSLPVTPGEPASISCKSSQSLLHINGFNYLDWFLQKPGQSPQLLIYLGSNRAPGVPDRFSGSGSGTDFTLKISRVEAEDVGVYYCQQSLQNPRTFGGGTKVEIKR
# B4: COVID19_P08_G02 (scFv, V domains shown)
# VH: B3 VH with V37I, Y51V, G53A, G56D, Y57R, Y59H, F60Y, M100L
# VL: DIVMTQSPLSLPVTPGEPASISCRSSQSLVHSDGYTYLNWYLQKPGQSPQLLIYVGSYRASGVPDRFSGSGSGTDFTLKISRVEAEDVGVYYCMQASQWPPTFGGGTKVEIKR
# B5: COVID19_P07_F10 (scFv, V domains shown)
# VH: B3 VH with A50G, Y51V, G53A, Y57G, T58P, F60Y
# VL: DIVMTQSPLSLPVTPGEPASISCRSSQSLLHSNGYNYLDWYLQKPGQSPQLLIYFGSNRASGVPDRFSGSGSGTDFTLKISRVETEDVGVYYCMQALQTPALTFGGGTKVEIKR
# B6: COVID19_P08_D04 (scFv, V domains shown)
# VH: B3 VH with T28I, G33A, H35N, A50G, Y51I, Y57G, T58A, F60Y, M100L
# VL: DIVMTQSPLSLPVTPGEPASISCRSSQSLLQSNGYNYMDWYLQKPGQSPQLLIYLTSNRAAGVPDRFSGSGSGTDFTLKISRVEAEDVGVYYCQQSYGPPLTFGGGTKVEIKR
# B7: COVID19_P20_C11 (scFv, V domains shown)
# VH: EVQLVESGGGLVQPGGSLRLSCAASGFTFSSYSMNWVRQAPGKGLEWVSGISGSGDRTYYADSVKGRFTISRDNSKNTLYLQMNSLRAEDTAVYYCSMQRDNSRDYFPHYFHDMDVWGQGTLVTVSS
# VL: DIVMTQSPLSLPVTPGEPASISCRSSQSLLYSDGDTYLDWYLQKPGQSPQLLIYLGSIRAPGVPDRFSGSGSGTDFTLKISRVEAEDVGVYYCMQSVQTPWTFGGGTKVEIKR
# What was measured:
# Assay in all cases: SPR, scFv captured via anti-V5, RBD as analyte
# [1] = target: T1, SARS-CoV-2 Receptor Binding Domain (RBD) protein (SARS-CoV-2, UniProt P0DTC2 319-541)
# [2] = target: SARS-CoV-1 Receptor Binding Domain (RBD) protein (SARS-CoV-1, UniProt P59594 306-527)
# [3] = target: MERS Receptor Binding Domain (RBD) protein (MERS coronavirus, UniProt K9N5Q8 367-606)
# [4] = target: T1, SARS-CoV-2 Receptor Binding Domain …; remark: listed apart in the source
binder,measurement,setting,value
B1,Kd,[1],< 50 nM
same,binding result,[2],no binding (tested: up to 300 nM)
same,binding result,[3],no binding (tested: up to 300 nM)
same,Kd,[4],1.5 nM
same,koff,[4],5.7e-05 s⁻¹
same,kon,[4],39100 M⁻¹ s⁻¹
B2,Kd,[1],< 50 nM
same,binding result,[2],no binding (tested: up to 300 nM)
same,binding result,[3],no binding (tested: up to 300 nM)
same,Kd,[4],1.5 nM
same,koff,[4],5.7e-05 s⁻¹
same,kon,[4],38000 M⁻¹ s⁻¹
B3,Kd,[1],< 50 nM
same,binding result,[2],no binding (tested: up to 300 nM)
same,binding result,[3],no binding (tested: up to 300 nM)
same,Kd,[4],36.1 nM
same,koff,[4],0.00384 s⁻¹
same,kon,[4],106000 M⁻¹ s⁻¹
B4,Kd,[1],< 50 nM
same,binding result,[2],no binding (tested: up to 300 nM)
same,binding result,[3],no binding (tested: up to 300 nM)
same,Kd,[4],2.71 nM
same,koff,[4],0.0001 s⁻¹
same,kon,[4],38000 M⁻¹ s⁻¹
B5,Kd,[1],< 50 nM
same,binding result,[2],no binding (tested: up to 300 nM)
same,binding result,[3],no binding (tested: up to 300 nM)
same,Kd,[4],8.05 nM
same,koff,[4],0.000483 s⁻¹
same,kon,[4],60000 M⁻¹ s⁻¹
B6,Kd,[1],< 50 nM
same,binding result,[2],no binding (tested: up to 300 nM)
same,binding result,[3],no binding (tested: up to 300 nM)
same,Kd,[4],0.86 nM
same,koff,[4],5.7e-05 s⁻¹
same,kon,[4],66000 M⁻¹ s⁻¹
B7,Kd,[1],< 50 nM
same,binding result,[2],no binding (tested: up to 300 nM)
same,binding result,[3],no binding (tested: up to 300 nM)
same,Kd,[4],2.94 nM
same,koff,[4],0.000607 s⁻¹
same,kon,[4],207000 M⁻¹ s⁻¹
